Data as given in patent US20190085055A1.

Columns and labels:
[1] = target: D3H44 light chain F116A; assay: LCCA (SPR), competitor L1 WT
[2] = target: D3H44 light chain F118W_V133S; assay: LCCA (SPR), competitor L1 F116A
[3] = target: D3H44 light chain F118W_V133S; assay: LCCA (SPR), competitor L1 F116S
[4] = target: D3H44 light chain, wild type; assay: LCCA (SPR), competitor L2 F116A
[5] = target: D3H44 light chain F116A; assay: LCCA (SPR), competitor L2 F118W_V133S
[6] = target: D3H44 light chain F116S; assay: LCCA (SPR), competitor L2 F118W_V133S
[7] = target: D3H44 light chain F98L; assay: LCCA (SPR), competitor L1 WT
[8] = target: D3H44 light chain, wild type; assay: LCCA (SPR), competitor L2 F98L
[9] = target: D3H44 light chain S176L; assay: LCCA (SPR), competitor L2 WT
D3H44 light chain S176L, sequence (light, as listed by the source): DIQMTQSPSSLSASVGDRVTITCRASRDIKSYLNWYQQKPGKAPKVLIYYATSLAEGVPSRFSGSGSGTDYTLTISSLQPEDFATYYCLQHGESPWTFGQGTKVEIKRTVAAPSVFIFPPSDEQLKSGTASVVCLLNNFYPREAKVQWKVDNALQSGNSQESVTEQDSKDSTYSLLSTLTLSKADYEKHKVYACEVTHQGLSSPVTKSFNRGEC

[10] = target: D3H44 light chain, wild type; assay: LCCA (SPR), competitor L1 S176L
[11] = target: D3H44 light chain P44W; assay: LCCA (SPR), competitor L1 Y87G
[12] = target: D3H44 light chain Y87G; assay: LCCA (SPR), competitor L2 P44W
D3H44 light chain Y87G, sequence (light, as listed by the source limits assumed): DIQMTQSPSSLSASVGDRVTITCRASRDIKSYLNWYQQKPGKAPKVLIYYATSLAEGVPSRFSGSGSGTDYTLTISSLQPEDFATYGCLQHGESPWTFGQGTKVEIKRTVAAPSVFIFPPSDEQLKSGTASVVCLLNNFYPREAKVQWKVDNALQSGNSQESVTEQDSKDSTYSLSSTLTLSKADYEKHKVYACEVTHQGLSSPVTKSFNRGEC

[13] = target: D3H44 light chain Q38D; assay: LCCA (SPR), competitor L1 Q38R
D3H44 light chain Q38D, sequence (light, as listed by the source limits assumed): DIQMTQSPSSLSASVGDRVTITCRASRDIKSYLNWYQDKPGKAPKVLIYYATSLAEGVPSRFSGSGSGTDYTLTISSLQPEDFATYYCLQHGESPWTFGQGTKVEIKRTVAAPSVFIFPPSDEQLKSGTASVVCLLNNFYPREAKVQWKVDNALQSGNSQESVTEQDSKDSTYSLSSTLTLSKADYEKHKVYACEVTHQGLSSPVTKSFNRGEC

[14] = target: D3H44 light chain Q38R; assay: LCCA (SPR), competitor L2 Q38D
D3H44 light chain Q38R, sequence (light, as listed by the source): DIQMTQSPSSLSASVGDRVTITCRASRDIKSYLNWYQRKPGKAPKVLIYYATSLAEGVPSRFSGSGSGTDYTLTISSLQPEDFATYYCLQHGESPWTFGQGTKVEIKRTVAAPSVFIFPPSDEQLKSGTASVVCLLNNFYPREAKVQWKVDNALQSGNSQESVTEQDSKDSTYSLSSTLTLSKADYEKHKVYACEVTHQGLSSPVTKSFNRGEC

[15] = target: D3H44 light chain Q38N_T85K; assay: LCCA (SPR), competitor L1 Q38N_T85E
D3H44 light chain Q38N_T85K, sequence (light, as listed by the source limits assumed): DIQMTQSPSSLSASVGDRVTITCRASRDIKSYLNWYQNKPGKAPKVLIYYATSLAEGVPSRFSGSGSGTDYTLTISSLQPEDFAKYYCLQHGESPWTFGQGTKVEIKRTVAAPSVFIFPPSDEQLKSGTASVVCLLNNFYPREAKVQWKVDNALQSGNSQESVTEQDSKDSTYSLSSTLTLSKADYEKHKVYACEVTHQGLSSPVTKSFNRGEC

[16] = target: D3H44 light chain Q38N_T85E; assay: LCCA (SPR), competitor L2 Q38N_T85K
D3H44 light chain Q38N_T85E, sequence (light, as listed by the source limits assumed): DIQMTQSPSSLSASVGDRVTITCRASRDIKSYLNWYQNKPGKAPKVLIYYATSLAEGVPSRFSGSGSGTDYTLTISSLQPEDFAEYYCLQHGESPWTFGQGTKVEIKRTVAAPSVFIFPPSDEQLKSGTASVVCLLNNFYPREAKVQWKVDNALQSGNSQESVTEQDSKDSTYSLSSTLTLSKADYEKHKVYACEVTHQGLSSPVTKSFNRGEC

[17] = target: D3H44 light chain F98A; assay: LCCA (SPR), competitor L1 Q38R
[18] = target: D3H44 light chain P44W; assay: LCCA (SPR), competitor L1 F98L
[19] = target: D3H44 light chain F98A; assay: LCCA (SPR), competitor L1 P44W
[20] = target: D3H44 light chain F98W; assay: LCCA (SPR), competitor L1 P44W
[21] = target: D3H44 light chain P44W; assay: LCCA (SPR), competitor L2 F98A
[22] = target: D3H44 light chain P44W; assay: LCCA (SPR), competitor L2 F98W
[23] = target: D3H44 light chain F98L; assay: LCCA (SPR), competitor L2 P44W
[24] = target: D3H44 light chain F98L; assay: LCCA (SPR), competitor L1 P44W
[25] = target: D3H44 light chain P44W; assay: LCCA (SPR), competitor L2 F98L
[26] = target: D3H44 light chain L89R_F98T; assay: LCCA (SPR), competitor L2 WT
D3H44 light chain L89R_F98T, sequence (light, as listed by the source limits assumed): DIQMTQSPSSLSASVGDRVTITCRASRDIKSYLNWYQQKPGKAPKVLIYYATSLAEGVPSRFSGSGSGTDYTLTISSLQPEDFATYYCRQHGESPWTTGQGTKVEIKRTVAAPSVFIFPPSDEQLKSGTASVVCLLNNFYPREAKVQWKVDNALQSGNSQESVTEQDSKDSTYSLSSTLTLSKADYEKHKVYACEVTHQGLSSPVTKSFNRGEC

[27] = target: D3H44 light chain, wild type; assay: LCCA (SPR), competitor L1 L89R_F98T
[28] = target: D3H44 light chain L89R_F98W; assay: LCCA (SPR), competitor L2 F98Y
D3H44 light chain L89R_F98W, sequence (light, as listed by the source): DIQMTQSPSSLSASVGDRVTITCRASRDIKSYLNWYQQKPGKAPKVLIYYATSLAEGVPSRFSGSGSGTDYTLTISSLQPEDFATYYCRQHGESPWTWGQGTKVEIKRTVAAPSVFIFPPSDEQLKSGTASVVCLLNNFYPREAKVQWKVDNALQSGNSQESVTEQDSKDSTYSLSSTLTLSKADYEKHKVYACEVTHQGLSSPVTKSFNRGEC

[29] = target: D3H44 light chain F98Y; assay: LCCA (SPR), competitor L1 L89R_F98W
D3H44 light chain F98Y, sequence (light, as listed by the source limits assumed): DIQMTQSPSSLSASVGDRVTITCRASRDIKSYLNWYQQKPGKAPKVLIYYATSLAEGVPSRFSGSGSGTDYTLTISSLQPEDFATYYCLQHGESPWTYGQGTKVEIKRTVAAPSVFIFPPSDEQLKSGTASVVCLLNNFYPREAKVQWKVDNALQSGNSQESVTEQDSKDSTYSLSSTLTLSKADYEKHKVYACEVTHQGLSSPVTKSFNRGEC

[30] = target: D3H44 light chain F98W; assay: LCCA (SPR), competitor L1 F98L
[31] = target: D3H44 light chain F98L; assay: LCCA (SPR), competitor L2 F98W

D3H44 light chain, wild type, sequence (light, as listed by the source): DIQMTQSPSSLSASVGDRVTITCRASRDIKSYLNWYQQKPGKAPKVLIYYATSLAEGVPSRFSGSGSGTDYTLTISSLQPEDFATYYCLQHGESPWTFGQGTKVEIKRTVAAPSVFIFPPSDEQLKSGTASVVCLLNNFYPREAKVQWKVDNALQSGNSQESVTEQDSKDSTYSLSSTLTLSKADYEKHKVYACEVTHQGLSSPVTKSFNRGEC

D3H44 heavy chain (Fab format) A139W_V190S
H2 L2 of H2 L2:H2 L1 (screen) [1]: 66.9 | H2 L2 of H2 L2:H2 L1 (verification) [1]: 43 | H1 L2 of H1 L1:H1 L2 (screen) [2]: 33.4 | H1 L2 of H1 L1:H1 L2 (verification) [2]: 0.722 | H1 L2 of H1 L1:H1 L2 (screen) [3]: 15.7 | H1 L2 of H1 L1:H1 L2 (verification) [3]: 20.2 | H2 L1 of H2 L2:H2 L1 (screen) [4]: 21.1 | H2 L1 of H2 L2:H2 L1 (verification) [4]: 22.3 | H1 L1 of H1 L1:H1 L2 (screen) [5]: 68.7 | H1 L1 of H1 L1:H1 L2 (verification) [5]: 83.8 | H1 L1 of H1 L1:H1 L2 (screen) [6]: 84.8 | H1 L1 of H1 L1:H1 L2 (verification) [6]: 55.4

D3H44 heavy chain (Fab format) F100W
H2 L2 of H2 L2:H2 L1 (screen) [7]: 56.8 | H2 L2 of H2 L2:H2 L1 (verification) [7]: 38.9 | H2 L1 of H2 L2:H2 L1 (screen) [8]: 29.7 | H2 L1 of H2 L2:H2 L1 (verification) [8]: 44.9

D3H44 heavy chain (Fab format) F174V_S188L
H2 L1 of H2 L2:H2 L1 (screen) [9]: 5.94 | H2 L2 of H2 L2:H2 L1 (screen) [10]: 103

D3H44 heavy chain (Fab format) L45W
H1 L2 of H1 L1:H1 L2 (screen) [11]: 23.9 | H1 L2 of H1 L1:H1 L2 (verification) [11]: 31 | H1 L1 of H1 L1:H1 L2 (screen) [12]: 54.5 | H1 L1 of H1 L1:H1 L2 (verification) [12]: 58.1

D3H44 heavy chain (Fab format) Q39D
H1 L2 of H1 L1:H1 L2 (screen) [13]: 34.5 | H1 L2 of H1 L1:H1 L2 (verification) [13]: 31.1 | H1 L1 of H1 L1:H1 L2 (screen) [14]: 66.9 | H1 L1 of H1 L1:H1 L2 (verification) [14]: 61.8 | H2 L2 of H2 L2:H2 L1 (screen) [15]: 71.7 | H2 L1 of H2 L2:H2 L1 (screen) [16]: 27.4

D3H44 heavy chain (Fab format) Q39E
H1 L2 of H1 L1:H1 L2 (screen) [17]: 29.7 | H1 L2 of H1 L1:H1 L2 (verification) [17]: 7.2

D3H44 heavy chain (Fab format) Q39K
H1 L2 of H1 L1:H1 L2 (screen) [15]: 30.1 | H1 L2 of H1 L1:H1 L2 (verification) [15]: 21.7 | H1 L1 of H1 L1:H1 L2 (screen) [16]: 54.8 | H1 L1 of H1 L1:H1 L2 (verification) [16]: 66.5

D3H44 heavy chain (Fab format) S188L
H2 L1 of H2 L2:H2 L1 (screen) [9]: 9.32 | H2 L2 of H2 L2:H2 L1 (screen) [10]: 92.5

D3H44 heavy chain (Fab format) V37A_W103H
H2 L2 of H2 L2:H2 L1 (screen) [18]: 66.5 | H1 L2 of H1 L1:H1 L2 (screen) [19]: 8.79 | H1 L2 of H1 L1:H1 L2 (verification) [19]: 12.3 | H1 L2 of H1 L1:H1 L2 (screen) [20]: 19.6 | H2 L2 of H2 L2:H2 L1 (screen) [11]: 53.1 | H1 L1 of H1 L1:H1 L2 (screen) [21]: 67.5 | H1 L1 of H1 L1:H1 L2 (verification) [21]: 47.1 | H1 L1 of H1 L1:H1 L2 (screen) [22]: 53.6 | H2 L1 of H2 L2:H2 L1 (screen) [23]: 6.38 | H2 L1 of H2 L2:H2 L1 (screen) [12]: 18.9

D3H44 heavy chain (Fab format) V37A_W103V
H1 L2 of H1 L1:H1 L2 (screen) [19]: 25.3 | H2 L2 of H2 L2:H2 L1 (screen) [24]: 54.8 | H2 L2 of H2 L2:H2 L1 (verification) [24]: 52 | H2 L2 of H2 L2:H2 L1 (screen) [20]: 53 | H2 L2 of H2 L2:H2 L1 (verification) [20]: 23.3 | H1 L1 of H1 L1:H1 L2 (screen) [21]: 58.9 | H2 L1 of H2 L2:H2 L1 (screen) [22]: 18.6 | H2 L1 of H2 L2:H2 L1 (verification) [22]: 44.7 | H2 L1 of H2 L2:H2 L1 (screen) [25]: 22.8 | H2 L1 of H2 L2:H2 L1 (verification) [25]: 23

D3H44 heavy chain (Fab format) V37E
H1 L1 of H1 L1:H1 L2 (screen) [26]: 54.1 | H1 L1 of H1 L1:H1 L2 (verification) [26]: 90.9 | H1 L2 of H1 L1:H1 L2 (screen) [27]: 25 | H1 L2 of H1 L1:H1 L2 (verification) [27]: 16.5

D3H44 heavy chain (Fab format) V37I_F100W
H2 L2 of H2 L2:H2 L1 (screen) [24]: 67.3 | H2 L2 of H2 L2:H2 L1 (verification) [24]: 30.5 | H2 L1 of H2 L2:H2 L1 (screen) [25]: 26.9 | H2 L1 of H2 L2:H2 L1 (verification) [25]: 47.9

D3H44 heavy chain (Fab format) V37S_A97K
H2 L1 of H2 L2:H2 L1 (screen) [28]: 0.5 | H2 L1 of H2 L2:H2 L1 (verification) [28]: 11.7 | H2 L2 of H2 L2:H2 L1 (screen) [29]: 71.6 | H2 L2 of H2 L2:H2 L1 (verification) [29]: 65.6

D3H44 heavy chain (Fab format) V37W_W103F
H1 L2 of H1 L1:H1 L2 (screen) [30]: 14.8 | H1 L2 of H1 L1:H1 L2 (verification) [30]: 27.7 | H1 L1 of H1 L1:H1 L2 (screen) [31]: 64.2 | H1 L1 of H1 L1:H1 L2 (verification) [31]: 38.2

D3H44 heavy chain (Fab format) V37W_W103H
H1 L2 of H1 L1:H1 L2 (screen) [30]: 30 | H1 L2 of H1 L1:H1 L2 (verification) [30]: 30.5 | H1 L2 of H1 L1:H1 L2 (screen) [18]: 29.2 | H1 L2 of H1 L1:H1 L2 (verification) [18]: 21.2 | H1 L1 of H1 L1:H1 L2 (screen) [31]: 57.2 | H1 L1 of H1 L1:H1 L2 (verification) [31]: 62.3 | H1 L1 of H1 L1:H1 L2 (screen) [23]: 48.3 | H1 L1 of H1 L1:H1 L2 (verification) [23]: 56

D3H44 heavy chain (Fab format) V190G
H1 L2 of H1 L1:H1 L2 (screen) [2]: 35.3 | H1 L2 of H1 L1:H1 L2 (screen) [3]: 24.1 | H1 L2 of H1 L1:H1 L2 (verification) [3]: 50.8 | H1 L1 of H1 L1:H1 L2 (screen) [5]: 55.1 | H1 L1 of H1 L1:H1 L2 (screen) [6]: 78.2 | H1 L1 of H1 L1:H1 L2 (verification) [6]: 25.9
